# Assay results from patent US20240425603A1 (Janssen / Centocor, published 2024).
# B1: VGFB78 (antibody, human IgG1, lambda, L234A L235A, V domains shown)
# VH: EVQLLESGGGLVQPGGSLRLSCAASSFTFYNYDMTWVRQAPGKGLEWVAGIGTSGTDMYYADSVKGRFTISRDNSKNTLYLQMNSLRAEDTAIYYCAKDYYYYGMDVWGLGTTVTVSS
# VL: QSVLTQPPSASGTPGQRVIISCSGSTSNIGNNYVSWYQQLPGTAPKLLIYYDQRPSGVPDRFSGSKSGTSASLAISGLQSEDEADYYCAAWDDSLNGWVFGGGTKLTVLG
# notes: human IgG1 (L234A/L235A/D265S)
# B2: VGFB54 (antibody, human IgG1, lambda, L234A L235A, V domains shown)
# VH: EVQLLESGGGSVQPGGSLRLSCTASGFNFEDYGMNWVRQAPGKGLDWVSSINRNGDISTYHVDSVKGRFTISRDNSKNTLYLQMNSLRAEDTAIYYCTKNHDYHGMDVWGQGTTVTVSS
# VL: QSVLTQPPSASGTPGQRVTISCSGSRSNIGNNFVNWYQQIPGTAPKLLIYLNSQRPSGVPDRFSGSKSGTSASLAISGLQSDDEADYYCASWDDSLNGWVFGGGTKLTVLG
# notes: human IgG1 (L234A/L235A/D265S), lambda, 2H:2L; from OmniChicken
# B3: VGFB82 (antibody, human IgG1, lambda, L234A L235A, V domains shown)
# VH: EVQLLESGGGLVQPGGSLRLSCEASGFDFSTYAMNWVRQAPGKGLEWVATINSEGTITSHAPAVKGRFTISRDNSKNTAYVQMNSLRAEDSAVYYCSSTTGTTHGMDVWGRGTTVTVSS
# VL: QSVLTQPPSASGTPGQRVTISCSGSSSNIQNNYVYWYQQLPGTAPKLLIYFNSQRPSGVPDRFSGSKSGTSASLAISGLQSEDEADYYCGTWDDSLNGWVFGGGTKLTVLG
# notes: as for B1
# B4: VGFB71 (antibody, human IgG1, lambda, L234A L235A, V domains shown)
# VH: EVQLLESGGGLVQPGGSLRLSCEASGFIFRDYNMNWVRQAPGKGLEWVSIITNDGSSTAYSDSVKGRFTISRDNSKNSLYLQMNSLRAEDTAIYYCVKVYYGMDDWGQGTTVTVSS
# VL: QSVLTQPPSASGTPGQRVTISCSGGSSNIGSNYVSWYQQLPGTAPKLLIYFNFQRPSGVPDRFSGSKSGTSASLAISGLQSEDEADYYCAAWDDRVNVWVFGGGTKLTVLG
# notes: as for B1
# Assays:
# [1] = target: T1, ISLR (BC022478) (human, UniProt O14498 19-428); assay: Retrogenix cell microarray, fixed HEK293 cells, 2 ug/mL antibody
# T1 construct: whole, on cells; also called Immunoglobulin superfamily containing leucine-rich repeat protein
# T1 sequence (looked up): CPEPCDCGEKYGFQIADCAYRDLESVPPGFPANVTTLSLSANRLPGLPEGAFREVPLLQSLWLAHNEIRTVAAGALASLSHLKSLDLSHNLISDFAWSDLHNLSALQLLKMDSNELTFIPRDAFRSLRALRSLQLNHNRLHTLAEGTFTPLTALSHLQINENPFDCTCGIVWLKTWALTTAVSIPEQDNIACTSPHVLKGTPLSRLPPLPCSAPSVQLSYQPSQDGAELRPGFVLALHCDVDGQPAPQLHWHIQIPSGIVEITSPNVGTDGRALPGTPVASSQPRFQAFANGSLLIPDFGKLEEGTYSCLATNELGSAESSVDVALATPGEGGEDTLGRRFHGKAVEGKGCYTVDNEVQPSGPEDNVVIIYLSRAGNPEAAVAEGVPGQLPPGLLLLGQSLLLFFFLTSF
# Procedure: (§1) This human cell microarray methodology has been previously described in the literature (Freeth, J. et al, SLAS Discovery, 25 (2), 223-230, 2020). Primary screening was performed on slides arrayed with fixed HEK293 cells with each spot of HEK293 cells expressing either a unique protein from the cell surface-ome, a cell surface tethered human secreted protein, or a heterodimeric human cell surface receptor. In total, 5,528 unique gene products were represented in this primary screen (4,103 human plasma membrane proteins (+some untethered secreted proteins)+1,425 cell surface tethered human secreted proteins). Briefly, slides containing fixed transfected HEK293 cells were overlaid with a solution of test antibody (2 μg/mL), incubated, and washed. Binding was assessed using AlexaFluor647-conjugated anti-human IgG Fc detection antibody and fluorescence quantitation on ImageQuant. […] Located in the ER, off-target binding to CRELD2 was of less concern. Nectin-1, FGFR2, and ISLR, on the other hand, display broad tissue expression profiles. Cross-reactivity to these proteins is undesirable because binding to these targets might have a significant impact on pharmacokinetic and biodistribution profiles of the molecules. This off-target binding was subsequently confirmed by flow cytometry on live HEK293 cells transiently expressing these ‘off-target’ proteins identified in the primary screen.
# [2] = target: T2, human VEGFR1, full length, over-expressed on cells (human, UniProt P17948 27-1338); assay: cell binding assay (column head prints IC50)
# T2 construct: on CHO-K1 or HEK cells; also called hVEGFR1; CHOK1/ human VEGFR1
# T2 sequence (P17948 27-1338 limits assumed): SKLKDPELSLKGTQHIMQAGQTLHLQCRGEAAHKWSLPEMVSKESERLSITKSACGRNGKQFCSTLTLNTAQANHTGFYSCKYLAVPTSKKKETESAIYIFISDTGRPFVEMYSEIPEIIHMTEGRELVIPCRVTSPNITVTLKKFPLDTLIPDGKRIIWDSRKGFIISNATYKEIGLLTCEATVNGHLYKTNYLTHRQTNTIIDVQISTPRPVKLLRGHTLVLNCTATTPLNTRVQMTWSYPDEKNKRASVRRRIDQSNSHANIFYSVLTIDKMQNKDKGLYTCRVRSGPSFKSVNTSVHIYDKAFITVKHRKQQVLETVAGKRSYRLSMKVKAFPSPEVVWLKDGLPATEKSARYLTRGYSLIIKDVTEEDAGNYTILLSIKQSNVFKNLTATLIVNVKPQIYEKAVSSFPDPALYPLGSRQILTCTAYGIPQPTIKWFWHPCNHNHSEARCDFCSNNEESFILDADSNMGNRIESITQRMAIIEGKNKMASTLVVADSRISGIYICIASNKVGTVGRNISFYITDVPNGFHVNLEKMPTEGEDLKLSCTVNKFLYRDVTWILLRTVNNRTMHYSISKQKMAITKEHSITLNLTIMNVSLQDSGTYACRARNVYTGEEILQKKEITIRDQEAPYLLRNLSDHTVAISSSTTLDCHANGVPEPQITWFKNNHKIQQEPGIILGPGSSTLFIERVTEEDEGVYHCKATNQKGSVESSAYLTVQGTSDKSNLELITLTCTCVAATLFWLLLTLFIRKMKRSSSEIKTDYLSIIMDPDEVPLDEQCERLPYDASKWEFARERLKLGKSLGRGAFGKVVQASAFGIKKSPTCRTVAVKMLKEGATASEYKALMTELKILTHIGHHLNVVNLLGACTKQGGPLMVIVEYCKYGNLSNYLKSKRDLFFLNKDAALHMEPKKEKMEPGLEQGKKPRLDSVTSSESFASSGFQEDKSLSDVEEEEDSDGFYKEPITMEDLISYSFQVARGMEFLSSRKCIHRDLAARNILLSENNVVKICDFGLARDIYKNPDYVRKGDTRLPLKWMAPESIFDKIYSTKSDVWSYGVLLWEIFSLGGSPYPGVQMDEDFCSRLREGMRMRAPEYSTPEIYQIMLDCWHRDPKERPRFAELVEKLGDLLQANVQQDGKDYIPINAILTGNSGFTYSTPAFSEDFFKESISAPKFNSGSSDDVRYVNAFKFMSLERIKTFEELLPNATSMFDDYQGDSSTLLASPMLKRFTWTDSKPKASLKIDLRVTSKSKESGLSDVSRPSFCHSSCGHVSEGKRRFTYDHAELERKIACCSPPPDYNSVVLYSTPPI
# [3] = target: T3, Recombinant human VEGFR1-Fc (R&D Systems) (human, UniProt P17948 27-687, limits assumed); assay: biochemical ligand blocking assay; ligand and receptor form not given
# T3 construct: bought; not shown: Fc part of the bought fusion, not described
# T3 sequence (P17948 27-687 limits assumed): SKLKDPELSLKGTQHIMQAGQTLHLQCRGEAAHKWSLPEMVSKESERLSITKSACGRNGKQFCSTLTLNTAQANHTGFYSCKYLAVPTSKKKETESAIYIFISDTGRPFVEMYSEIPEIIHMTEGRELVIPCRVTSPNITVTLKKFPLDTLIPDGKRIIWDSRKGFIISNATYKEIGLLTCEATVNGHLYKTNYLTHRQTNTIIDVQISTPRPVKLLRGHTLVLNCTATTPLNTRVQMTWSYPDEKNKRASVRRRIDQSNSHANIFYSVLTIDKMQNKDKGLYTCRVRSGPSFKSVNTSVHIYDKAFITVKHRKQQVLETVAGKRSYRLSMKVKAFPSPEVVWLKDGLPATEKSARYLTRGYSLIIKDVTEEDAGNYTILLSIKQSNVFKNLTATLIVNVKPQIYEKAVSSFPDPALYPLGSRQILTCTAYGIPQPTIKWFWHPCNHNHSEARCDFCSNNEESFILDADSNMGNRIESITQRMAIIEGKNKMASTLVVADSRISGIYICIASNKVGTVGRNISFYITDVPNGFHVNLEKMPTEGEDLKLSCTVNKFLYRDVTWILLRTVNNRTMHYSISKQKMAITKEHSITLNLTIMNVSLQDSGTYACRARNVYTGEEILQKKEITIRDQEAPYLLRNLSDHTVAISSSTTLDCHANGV
# Procedure, shortened: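 IC50 values come from a biochemical electro-chemiluminescence ligand blocking assay. Recombinant VEGFR1-Fc, captured on Protein A/G-coated MSD plates, was pre-incubated for 30 minutes with half-log antibody dilutions before biotinylated ligand was added and then detected on an MSD imager using Sulfo-tagged streptavidin.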
# [4] = target: human VEGFR1 (soluble antigen of the KinExA and SPR affinity assays) (human, UniProt P17948 27-758, limits assumed); assay: KinExA, solution
# Chain of human VEGFR1 (soluble antigen of the KinExA and SPR affinity assays) (P17948 27-758 limits assumed): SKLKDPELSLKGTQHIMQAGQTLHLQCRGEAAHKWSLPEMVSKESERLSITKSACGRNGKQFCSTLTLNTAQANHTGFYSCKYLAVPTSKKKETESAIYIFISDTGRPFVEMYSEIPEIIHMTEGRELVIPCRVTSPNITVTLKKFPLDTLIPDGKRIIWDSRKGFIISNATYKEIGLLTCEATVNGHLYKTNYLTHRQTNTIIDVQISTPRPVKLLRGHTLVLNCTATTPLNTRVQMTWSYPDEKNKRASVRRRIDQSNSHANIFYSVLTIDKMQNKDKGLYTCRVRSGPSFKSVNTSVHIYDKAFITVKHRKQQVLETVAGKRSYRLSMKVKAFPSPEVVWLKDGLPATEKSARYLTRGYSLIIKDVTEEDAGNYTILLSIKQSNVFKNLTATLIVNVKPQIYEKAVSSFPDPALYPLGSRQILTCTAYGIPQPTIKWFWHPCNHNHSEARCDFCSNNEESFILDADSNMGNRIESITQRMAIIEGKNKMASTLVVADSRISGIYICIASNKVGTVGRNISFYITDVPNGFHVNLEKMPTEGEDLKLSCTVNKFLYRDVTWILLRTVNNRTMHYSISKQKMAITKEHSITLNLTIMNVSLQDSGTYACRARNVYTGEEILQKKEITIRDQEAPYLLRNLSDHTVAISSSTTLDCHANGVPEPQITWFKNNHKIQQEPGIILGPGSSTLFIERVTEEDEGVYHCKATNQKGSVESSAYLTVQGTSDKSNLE
# Procedure: Kinetic exclusion assay (KEA; KinExA) was used to analyze the binding of anti-VEGFR1 antibodies to human, mouse and cynomolgus monkeys VEGFR1. KEA is a fluorescence-based solution method, and it is described in detail in the literature (Darling and Brault, 2004). To measure the affinity of an interaction, a series of solutions with a fixed concentration of one interactant (A) and varying concentrations of another interactant (B) are prepared and allowed to reach equilibrium. After equilibration, the concentration of free A is determined by flowing the equilibrated mixture through a column packed with beads modified with reactant B. Free A binds to the beads and is then detected using a fluorescently labeled polyclonal antibody.
# Briefly, fixed concentrations (300 pM, 60 pM, 12 pM, 2.4 or 0.5 pM) of Ab were used to prepare a serial dilution of the antigen (2 nM to 0.52 pM, or 800 pM to 5.37 fM). The complex titrations were incubated at RT to reach binding equilibrium for at least 2 days. After incubation, the samples were run on the KinExA3200 or KinExA4000 instrument to assess free antibody in the reaction. During these studies some of the data were rejected because the experiments failed or failed the acceptance criteria. For mouse VEGFR1 the 60 and 300 pM concentrations were rejected due to high titrant related NSB. The dissociation equilibrium constant, (KD), was determined using the n-curve analysis feature of the KinExA Pro software. This program uses nonlinear least-square regression analysis of the globally fitted data to a 1:1 binding model. (CI=confidence interval).
# [5] = target: T4, NECTIN1 Isoform Alpha (NM_203285.1) (human, UniProt Q15223-2 31-458); assay: Retrogenix cell microarray, fixed HEK293 cells, 2 ug/mL antibody
# T4 construct: whole, on cells
# T4 sequence (looked up): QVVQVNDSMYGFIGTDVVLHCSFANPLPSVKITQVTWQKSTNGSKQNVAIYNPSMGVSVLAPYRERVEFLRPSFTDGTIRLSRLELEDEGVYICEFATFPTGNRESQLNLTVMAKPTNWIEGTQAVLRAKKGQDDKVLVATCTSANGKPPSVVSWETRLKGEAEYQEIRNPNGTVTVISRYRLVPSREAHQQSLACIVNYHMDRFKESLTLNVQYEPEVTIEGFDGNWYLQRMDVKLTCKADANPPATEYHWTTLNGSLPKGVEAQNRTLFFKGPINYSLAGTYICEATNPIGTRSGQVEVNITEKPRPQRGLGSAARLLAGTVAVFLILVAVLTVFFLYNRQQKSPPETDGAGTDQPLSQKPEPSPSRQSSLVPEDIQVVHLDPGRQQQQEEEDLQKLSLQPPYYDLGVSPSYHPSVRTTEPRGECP
# Procedure: as §1
binder,measurement,setting,value
B1,binding result,[1],binds
B2,IC50,[2],0.198 nM
same,IC50,[3],0.0894 nM
B3,Kd,[4],0.00046 nM
B4,binding result,[5],binds
